Key:
Settings in all cases: protein: recombinant; chain copies: 2; blunt; as printed S2 is not the exact complement of S1: 2 mismatches at S1 positions 34-35 (possible typo)
[1] = biological target: T1, DNA topoisomerase II alpha, full length (human, UniProt P11388 1-1531); test: fluorescence anisotropy; 50 mM Tris pH 8, 5% glycerol, 50 mM KCl, 1% Triton X-100, 100 µg/ml acetylated BSA, 20°C; HEX oligo printed as 1 µM; 10 mM MgCl2 or CaCl2 where described
[2] = biological target: T2, DNA topoisomerase II beta, full length (human, UniProt Q02880 1-1626); test: as above
[3] = biological target: Truncated topoisomerase II alpha (C-terminal domain deleted) (human, UniProt P11388 29-1242); test: as above
[4] = biological target: Truncated topoisomerase II beta (C-terminal domain deleted) (human, UniProt Q02880 51-1268); test: as above
[5] = biological target: T1, DNA topoisomerase II alpha, full length; test: fluorescence anisotropy; 10 mM CaCl2; 50 mM Tris pH 8, 5% glycerol, 50 mM KCl, 1% Triton X-100, 100 µg/ml acetylated BSA, 20°C; HEX oligo printed as 1 µM; 10 mM MgCl2 or CaCl2 where described
[6] = biological target: T2, DNA topoisomerase II beta, full length; test: as above
[7] = biological target: T1, DNA topoisomerase II alpha, full length; test: fluorescence anisotropy; no metal; 50 mM Tris pH 8, 5% glycerol, 50 mM KCl, 1% Triton X-100, 100 µg/ml acetylated BSA, 20°C; HEX oligo printed as 1 µM; 10 mM MgCl2 or CaCl2 where described
[8] = biological target: T2, DNA topoisomerase II beta, full length; test: as above
[9] = biological target: T1, DNA topoisomerase II alpha, full length; test: fluorescence anisotropy; 10 mM MgCl2; 50 mM Tris pH 8, 5% glycerol, 50 mM KCl, 1% Triton X-100, 100 µg/ml acetylated BSA, 20°C; HEX oligo printed as 1 µM; 10 mM MgCl2 or CaCl2 where described
[10] = biological target: T2, DNA topoisomerase II beta, full length; test: as above

T1 sequence (P11388 whole entry): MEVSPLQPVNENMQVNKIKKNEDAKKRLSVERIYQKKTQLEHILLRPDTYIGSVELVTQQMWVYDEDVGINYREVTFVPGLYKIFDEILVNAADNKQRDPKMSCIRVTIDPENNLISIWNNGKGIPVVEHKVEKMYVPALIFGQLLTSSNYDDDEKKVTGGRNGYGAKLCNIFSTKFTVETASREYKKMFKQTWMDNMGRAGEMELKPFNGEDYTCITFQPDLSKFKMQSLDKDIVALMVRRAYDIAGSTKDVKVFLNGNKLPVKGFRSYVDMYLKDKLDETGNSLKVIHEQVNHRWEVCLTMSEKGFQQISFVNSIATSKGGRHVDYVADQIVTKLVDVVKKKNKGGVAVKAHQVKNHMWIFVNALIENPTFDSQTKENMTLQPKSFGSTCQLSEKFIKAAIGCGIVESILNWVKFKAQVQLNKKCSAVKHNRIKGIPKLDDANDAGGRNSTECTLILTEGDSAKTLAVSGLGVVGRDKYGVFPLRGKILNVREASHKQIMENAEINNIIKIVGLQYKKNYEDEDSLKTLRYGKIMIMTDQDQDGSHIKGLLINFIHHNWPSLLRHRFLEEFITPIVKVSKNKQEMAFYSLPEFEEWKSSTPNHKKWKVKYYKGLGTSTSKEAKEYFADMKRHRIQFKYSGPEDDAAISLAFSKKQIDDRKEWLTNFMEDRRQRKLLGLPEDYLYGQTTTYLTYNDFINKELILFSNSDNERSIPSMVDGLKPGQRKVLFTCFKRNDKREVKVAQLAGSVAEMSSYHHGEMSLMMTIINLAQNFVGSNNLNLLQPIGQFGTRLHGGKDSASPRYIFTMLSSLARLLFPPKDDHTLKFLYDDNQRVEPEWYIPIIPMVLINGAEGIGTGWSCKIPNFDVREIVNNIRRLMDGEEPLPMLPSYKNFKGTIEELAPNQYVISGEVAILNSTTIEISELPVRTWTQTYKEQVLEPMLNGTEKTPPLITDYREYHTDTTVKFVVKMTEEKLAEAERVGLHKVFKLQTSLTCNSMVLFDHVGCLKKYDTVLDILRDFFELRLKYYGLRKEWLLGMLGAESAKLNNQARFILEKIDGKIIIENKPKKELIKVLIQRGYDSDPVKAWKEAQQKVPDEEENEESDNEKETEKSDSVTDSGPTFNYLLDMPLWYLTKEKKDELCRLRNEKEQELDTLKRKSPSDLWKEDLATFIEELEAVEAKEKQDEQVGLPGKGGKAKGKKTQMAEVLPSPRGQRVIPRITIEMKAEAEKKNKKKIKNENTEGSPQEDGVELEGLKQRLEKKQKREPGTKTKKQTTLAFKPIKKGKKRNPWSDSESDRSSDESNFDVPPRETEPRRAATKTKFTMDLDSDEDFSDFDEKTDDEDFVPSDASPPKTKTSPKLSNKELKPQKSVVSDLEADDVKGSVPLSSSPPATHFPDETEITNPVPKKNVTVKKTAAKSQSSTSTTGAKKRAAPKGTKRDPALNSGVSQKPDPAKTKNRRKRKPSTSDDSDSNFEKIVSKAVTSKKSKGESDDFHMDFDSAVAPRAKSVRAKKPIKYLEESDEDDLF
T2 sequence (Q02880 whole entry, the tested form may be a part): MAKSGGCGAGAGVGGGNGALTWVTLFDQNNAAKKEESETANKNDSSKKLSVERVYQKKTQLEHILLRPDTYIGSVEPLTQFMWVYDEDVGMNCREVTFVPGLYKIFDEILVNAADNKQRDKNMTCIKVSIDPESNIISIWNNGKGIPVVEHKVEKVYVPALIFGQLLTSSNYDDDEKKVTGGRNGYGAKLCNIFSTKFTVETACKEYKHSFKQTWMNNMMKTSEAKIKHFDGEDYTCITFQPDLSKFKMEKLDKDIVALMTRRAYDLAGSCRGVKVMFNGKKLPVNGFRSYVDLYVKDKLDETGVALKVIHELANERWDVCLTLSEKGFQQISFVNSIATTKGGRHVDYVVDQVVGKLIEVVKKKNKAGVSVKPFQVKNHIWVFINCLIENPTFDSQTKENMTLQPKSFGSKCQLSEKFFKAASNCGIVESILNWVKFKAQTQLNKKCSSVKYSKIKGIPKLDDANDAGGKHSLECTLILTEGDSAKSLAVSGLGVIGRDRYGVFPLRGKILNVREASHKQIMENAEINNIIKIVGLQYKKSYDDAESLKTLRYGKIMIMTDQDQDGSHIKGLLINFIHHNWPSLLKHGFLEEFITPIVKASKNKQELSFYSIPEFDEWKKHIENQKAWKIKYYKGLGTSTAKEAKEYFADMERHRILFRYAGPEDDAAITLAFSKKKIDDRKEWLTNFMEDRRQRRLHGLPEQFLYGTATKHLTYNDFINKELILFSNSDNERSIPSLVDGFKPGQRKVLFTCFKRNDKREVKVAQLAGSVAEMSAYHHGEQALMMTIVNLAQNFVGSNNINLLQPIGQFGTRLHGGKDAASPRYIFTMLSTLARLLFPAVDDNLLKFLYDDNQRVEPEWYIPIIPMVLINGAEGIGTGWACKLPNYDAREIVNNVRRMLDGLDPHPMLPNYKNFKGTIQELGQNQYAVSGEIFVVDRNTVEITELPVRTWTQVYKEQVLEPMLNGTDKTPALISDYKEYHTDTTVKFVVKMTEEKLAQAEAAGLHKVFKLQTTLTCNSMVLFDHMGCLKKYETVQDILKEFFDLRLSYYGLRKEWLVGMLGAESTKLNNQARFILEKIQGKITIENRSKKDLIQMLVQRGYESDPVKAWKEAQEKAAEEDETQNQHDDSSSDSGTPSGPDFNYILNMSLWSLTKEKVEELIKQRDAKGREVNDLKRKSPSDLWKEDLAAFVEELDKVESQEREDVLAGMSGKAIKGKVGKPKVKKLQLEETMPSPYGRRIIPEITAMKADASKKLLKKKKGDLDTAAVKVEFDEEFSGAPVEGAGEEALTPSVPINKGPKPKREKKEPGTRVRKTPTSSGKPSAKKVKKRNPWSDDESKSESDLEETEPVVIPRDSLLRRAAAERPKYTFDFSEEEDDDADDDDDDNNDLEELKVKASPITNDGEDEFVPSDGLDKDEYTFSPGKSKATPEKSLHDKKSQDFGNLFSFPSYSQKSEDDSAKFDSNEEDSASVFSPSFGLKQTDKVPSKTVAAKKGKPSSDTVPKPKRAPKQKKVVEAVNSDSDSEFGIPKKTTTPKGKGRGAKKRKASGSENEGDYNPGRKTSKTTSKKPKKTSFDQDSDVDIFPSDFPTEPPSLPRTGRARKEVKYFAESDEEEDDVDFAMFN
Sequence of Truncated topoisomerase II beta (C-terminal domain deleted) (Q02880 51-1268, stated change not applied): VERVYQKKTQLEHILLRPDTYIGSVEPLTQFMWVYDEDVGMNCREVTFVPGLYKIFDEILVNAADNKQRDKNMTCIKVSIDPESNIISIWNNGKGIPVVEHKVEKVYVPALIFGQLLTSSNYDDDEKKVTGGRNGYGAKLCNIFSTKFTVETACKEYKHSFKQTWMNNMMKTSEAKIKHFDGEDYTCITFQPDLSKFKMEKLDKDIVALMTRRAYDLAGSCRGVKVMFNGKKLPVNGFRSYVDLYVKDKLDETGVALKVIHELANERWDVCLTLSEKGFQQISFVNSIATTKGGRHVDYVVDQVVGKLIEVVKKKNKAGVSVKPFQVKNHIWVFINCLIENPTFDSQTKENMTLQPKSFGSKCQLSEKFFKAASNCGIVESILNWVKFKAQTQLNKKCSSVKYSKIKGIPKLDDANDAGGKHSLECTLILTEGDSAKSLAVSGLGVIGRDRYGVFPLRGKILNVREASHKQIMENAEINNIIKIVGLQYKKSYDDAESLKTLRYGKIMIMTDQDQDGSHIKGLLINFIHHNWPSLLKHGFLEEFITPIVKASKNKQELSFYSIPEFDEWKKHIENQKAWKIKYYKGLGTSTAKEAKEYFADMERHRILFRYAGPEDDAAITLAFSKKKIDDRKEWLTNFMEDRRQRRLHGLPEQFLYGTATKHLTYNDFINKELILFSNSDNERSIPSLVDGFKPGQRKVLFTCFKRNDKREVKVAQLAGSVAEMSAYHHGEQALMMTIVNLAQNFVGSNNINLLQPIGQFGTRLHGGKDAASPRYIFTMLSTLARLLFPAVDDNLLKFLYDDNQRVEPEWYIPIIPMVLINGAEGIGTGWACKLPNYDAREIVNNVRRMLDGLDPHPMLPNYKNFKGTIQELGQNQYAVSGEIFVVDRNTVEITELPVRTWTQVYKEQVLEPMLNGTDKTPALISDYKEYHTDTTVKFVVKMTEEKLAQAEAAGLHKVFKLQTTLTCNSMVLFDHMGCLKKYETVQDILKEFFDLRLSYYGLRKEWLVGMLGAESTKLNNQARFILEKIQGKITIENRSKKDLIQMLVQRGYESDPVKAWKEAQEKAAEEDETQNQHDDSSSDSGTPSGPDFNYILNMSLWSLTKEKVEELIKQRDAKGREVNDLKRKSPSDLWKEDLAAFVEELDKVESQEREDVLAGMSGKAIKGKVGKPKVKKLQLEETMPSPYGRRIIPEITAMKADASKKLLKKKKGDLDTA

B1: 40 bp oligo AB (dsDNA)
DNA 1: CGCAATCTGACAATGCGCTCATCGTCATCCTCGCGACGCG
DNA 2: CGCGTGCCGAGGATGACGATGAGCGCATTGTCAGATTGCG
- Kd [1]: 189 nM
- Kd [2]: 72.9 nM
- Kd [3]: 116 nM
- Kd [4]: 17.8 nM
- Kd [5]: 178 nM
- Kd [6]: 84.3 nM
- Kd [7]: 160 nM
- Kd [8]: 46.4 nM
- Kd [9]: 150 nM
- Kd [10]: 55.4 nM

— paper PMC3040172, “The Impact of the C-Terminal Domain on the Interaction of Human DNA Topoisomerase II α and β with DNA”
